Test [1] deals with T1, human PTH1R on Saos-2 cells (endogenous) (human, UniProt Q03431 27-593).
T1 sequence (looked up): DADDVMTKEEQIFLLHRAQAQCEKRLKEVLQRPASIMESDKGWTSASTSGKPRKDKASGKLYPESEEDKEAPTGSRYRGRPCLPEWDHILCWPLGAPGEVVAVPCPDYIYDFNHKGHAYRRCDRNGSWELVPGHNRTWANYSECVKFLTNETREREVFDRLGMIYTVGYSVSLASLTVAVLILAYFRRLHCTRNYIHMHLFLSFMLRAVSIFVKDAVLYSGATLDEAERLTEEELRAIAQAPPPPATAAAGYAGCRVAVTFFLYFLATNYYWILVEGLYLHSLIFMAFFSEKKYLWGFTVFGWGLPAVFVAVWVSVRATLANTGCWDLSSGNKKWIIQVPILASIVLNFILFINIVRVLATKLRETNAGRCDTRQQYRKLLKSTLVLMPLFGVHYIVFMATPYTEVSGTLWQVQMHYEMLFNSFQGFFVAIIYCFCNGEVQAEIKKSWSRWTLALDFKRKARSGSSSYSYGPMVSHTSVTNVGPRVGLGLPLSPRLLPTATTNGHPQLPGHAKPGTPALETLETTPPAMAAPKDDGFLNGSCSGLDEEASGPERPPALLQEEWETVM
The experiment in a line: cell-based or functional assay.

Test [2] addresses T2, rat PTH1R on UMR106 cells (rat, UniProt P25961 27-591).
T2 sequence (looked up): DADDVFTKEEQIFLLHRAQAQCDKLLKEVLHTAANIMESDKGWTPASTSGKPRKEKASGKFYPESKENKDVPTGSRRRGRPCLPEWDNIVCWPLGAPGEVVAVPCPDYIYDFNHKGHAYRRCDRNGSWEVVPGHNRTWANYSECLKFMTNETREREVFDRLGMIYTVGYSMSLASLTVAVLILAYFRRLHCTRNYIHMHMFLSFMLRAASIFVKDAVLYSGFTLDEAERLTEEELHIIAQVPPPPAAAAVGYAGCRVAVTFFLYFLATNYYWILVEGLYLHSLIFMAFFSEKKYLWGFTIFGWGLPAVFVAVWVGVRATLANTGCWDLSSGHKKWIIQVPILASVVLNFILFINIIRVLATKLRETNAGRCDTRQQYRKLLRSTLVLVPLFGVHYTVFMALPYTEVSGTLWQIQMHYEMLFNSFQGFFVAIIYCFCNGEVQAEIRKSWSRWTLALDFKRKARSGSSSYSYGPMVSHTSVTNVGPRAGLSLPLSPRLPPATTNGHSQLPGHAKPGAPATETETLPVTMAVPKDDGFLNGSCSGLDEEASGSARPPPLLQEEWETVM
The test is described as follows: cell-based or functional assay.

For test [3], the target named is T1, human PTH1R on Saos-2 cells (endogenous). The test is described as follows: cell-based or functional assay. This is another data set of the same source.
The target in test [4] is T3, human PTH1R overexpressed on CHO cells (human, UniProt Q03431 27-593).
T3 sequence (looked up): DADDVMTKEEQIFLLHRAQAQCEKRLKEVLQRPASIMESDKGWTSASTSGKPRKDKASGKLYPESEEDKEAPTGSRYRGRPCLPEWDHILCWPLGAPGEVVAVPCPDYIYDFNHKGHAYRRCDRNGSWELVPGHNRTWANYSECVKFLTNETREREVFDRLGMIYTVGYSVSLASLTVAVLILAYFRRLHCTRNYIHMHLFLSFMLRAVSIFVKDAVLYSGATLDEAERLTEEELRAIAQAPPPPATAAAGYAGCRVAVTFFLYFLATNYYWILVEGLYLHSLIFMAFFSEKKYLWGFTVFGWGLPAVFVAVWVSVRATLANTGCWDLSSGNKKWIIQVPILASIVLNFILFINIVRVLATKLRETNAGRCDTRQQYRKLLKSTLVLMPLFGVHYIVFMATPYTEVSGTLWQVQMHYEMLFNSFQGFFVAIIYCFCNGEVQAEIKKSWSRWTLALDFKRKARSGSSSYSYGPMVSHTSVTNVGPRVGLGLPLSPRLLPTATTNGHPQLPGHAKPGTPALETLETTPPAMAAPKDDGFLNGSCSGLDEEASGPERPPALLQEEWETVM
The test is described as follows: cell-based or functional assay.

In test [5] the target is T4, mouse PTH1R overexpressed on CHO cells (mouse, UniProt P41593 27-591).
T4 sequence (looked up): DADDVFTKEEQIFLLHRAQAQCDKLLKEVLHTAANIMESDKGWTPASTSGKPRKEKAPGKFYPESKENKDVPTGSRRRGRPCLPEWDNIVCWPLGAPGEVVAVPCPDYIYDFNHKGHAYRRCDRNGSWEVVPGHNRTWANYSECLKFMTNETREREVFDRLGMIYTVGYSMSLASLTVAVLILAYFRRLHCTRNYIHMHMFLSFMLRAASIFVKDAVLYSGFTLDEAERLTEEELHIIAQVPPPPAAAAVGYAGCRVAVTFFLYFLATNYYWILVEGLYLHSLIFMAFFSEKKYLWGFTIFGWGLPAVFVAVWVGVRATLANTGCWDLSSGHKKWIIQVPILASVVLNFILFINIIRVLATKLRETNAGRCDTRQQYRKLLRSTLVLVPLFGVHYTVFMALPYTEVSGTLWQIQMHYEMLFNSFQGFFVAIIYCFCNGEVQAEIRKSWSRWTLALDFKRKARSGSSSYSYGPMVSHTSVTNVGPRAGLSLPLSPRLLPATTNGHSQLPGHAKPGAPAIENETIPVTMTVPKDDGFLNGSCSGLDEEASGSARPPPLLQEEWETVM
The experiment in a line: cell-based or functional assay.

The target of test [6] is T5, recombinant N-terminal extracellular domain of the human PTH1R receptor (human, UniProt Q03431 27-188, limits assumed).
T5 construct: domain: N-terminal extracellular domain; Bought reagent; also called N-ECD PTH1R; PTH1R N-terminal ECD
T5 sequence (looked up): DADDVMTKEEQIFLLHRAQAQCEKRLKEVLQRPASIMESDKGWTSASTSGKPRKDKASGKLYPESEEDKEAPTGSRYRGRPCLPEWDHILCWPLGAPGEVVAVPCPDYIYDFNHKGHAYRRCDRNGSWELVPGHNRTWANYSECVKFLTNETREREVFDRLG
The test is described as follows: SPR, IgG captured, ECD injected. The essentials: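 Antibodies (0.5 μg/mL) captured on anti-human IgG-Fc chip to 100–200 RU in HBS-EP+ with 2.5 mg/mL BSA; receptor ECD injected at 30 μL/minute for 240 s, 360 s dissociation, 3M MgCl regeneration. Double-referenced data fit globally for ka and kd; KD=kd/kₐ.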

For test [7], the target named is T6, human PTH2R overexpressed on CHO cells (human, UniProt P49190 25-550).
T6 construct: whole, on cells; also called CHO human PTH2R
T6 sequence (P49190 25-550): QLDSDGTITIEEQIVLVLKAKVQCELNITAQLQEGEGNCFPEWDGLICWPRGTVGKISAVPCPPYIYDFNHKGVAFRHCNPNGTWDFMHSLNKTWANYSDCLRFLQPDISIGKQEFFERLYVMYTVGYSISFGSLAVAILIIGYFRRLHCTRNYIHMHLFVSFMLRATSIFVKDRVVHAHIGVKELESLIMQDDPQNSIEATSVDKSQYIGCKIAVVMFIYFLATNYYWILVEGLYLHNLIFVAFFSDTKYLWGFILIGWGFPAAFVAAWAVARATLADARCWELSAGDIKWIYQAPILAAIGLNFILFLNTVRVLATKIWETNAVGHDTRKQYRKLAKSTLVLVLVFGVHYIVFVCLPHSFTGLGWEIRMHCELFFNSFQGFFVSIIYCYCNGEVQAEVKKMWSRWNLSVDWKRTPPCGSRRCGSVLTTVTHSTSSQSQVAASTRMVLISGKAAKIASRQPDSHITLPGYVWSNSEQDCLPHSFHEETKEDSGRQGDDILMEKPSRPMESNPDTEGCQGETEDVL
The test is described as follows: flow cytometry on CHO cells overexpressing human PTH2R, 1 hr at 4 C, APC anti-human IgG. Here is the method: Increasing concentrations of anti-PTH1R antibodies were added to CHO cells overexpressing human PTH2R and incubated for 1 hr at 4° C. (FIG. 8). Cells were washed twice with FACS Buffer and antibody binding was detected with anti-human IgG APC. […] Anti-KLH.G2 was used a negative control for binding.
PTH2R has a 51% homology to PTH1R. […] Following two washes, cells were incubated with Allophycocyanin (APC) AffiniPure F(ab′)₂ Fragment Goat Anti-Human IgG (H+L) (Jackson ImmunoResearch, West Grove, Pa.) for 20 minutes at 4° C. Cells were washed twice and resuspended in FACS Buffer. Samples were acquired using BD Cytometer (BD Biosciences, San Jose, Calif.) and data were analyzed using FlowJo (FlowJo, LLC, Ashland, Oreg.) and Prism (GraphPad Software, La Jolla, Calif.). […] Anti-KLH.G2 was used a negative control for binding.

For test [8], the target named is T7, human PTH1R overexpressed on Saos-2 cells (human, UniProt Q03431 27-593).
T7 construct: whole, on cells; also called Saos-2 human PTH1R cells
T7 sequence (looked up): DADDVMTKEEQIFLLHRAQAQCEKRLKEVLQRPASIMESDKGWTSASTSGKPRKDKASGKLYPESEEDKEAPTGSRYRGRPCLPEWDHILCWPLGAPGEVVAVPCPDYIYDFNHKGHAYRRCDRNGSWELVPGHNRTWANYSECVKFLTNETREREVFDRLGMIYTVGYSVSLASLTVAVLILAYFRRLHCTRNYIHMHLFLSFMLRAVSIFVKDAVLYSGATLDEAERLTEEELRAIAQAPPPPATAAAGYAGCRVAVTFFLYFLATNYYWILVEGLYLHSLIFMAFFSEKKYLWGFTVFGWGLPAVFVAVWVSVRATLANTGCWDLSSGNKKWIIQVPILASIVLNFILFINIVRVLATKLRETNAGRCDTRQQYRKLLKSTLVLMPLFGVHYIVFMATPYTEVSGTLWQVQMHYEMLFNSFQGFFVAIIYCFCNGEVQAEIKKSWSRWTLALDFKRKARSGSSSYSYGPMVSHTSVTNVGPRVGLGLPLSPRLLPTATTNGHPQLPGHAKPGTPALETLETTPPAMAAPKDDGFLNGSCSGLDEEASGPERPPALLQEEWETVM
The test is described as follows: flow cytometry on Saos-2 cells overexpressing human PTH1R, antibody alone, PE anti-human IgG.

Test [9] addresses T7, human PTH1R overexpressed on Saos-2 …. The experiment in a line: flow cytometry on Saos-2 cells overexpressing human PTH1R, in the presence of 1 uM PTH, PE anti-human IgG.
Test [10] has the same target. The experiment in a line: flow cytometry on Saos-2 cells overexpressing human PTH1R, in the presence of 3 uM PTHrP, PE anti-human IgG.
The target is the same in test [11]. The test is described as follows: flow cytometry on Saos-2 cells overexpressing human PTH1R, antibody alone, PE anti-human IgG. This is another data set of the same source.
Test [12] shares this target. The experiment in a line: flow cytometry on Saos-2 cells overexpressing human PTH1R, in the presence of 1 uM PTH, PE anti-human IgG. This is another data set of the same source.
Test [13] has the same target. The experiment in a line: flow cytometry on Saos-2 cells overexpressing human PTH1R, in the presence of 3 uM PTHrP, PE anti-human IgG. An excerpt: Antibody binding was detected with R-Phycoerythrin anti-human IgG.
This is another data set of the same source.

Bounds are passed on as bounds.

B1: XPA.85.330 (antibody, V domains shown)
VH: QMQLVQSGAEVKKPGSSVKVSCKASGGTFSSYAISWVRQAPGQGLEWMGGIIPIFGTANYAQKFQGRVTITADESTSTAYMELSSLRSEDTAVYYCARGYVVARLWGQGTLVTVSS
VL: DIVMTQTPLSLSVTPGQPASISCKSSQSLLHIDGNTYLYWYLQRPGQPPQLLIYEISNRFSGVPDRFSGSGSGTDFTLKISRVEAEDVGVYYCMQSLHFPITFGQGTRLEIK
notes: IgG; also called Ab330
Turning to B1, in test [1], the “EC50 of antibody, neutralization of M-CSF production induced by 12.5 nM PTHrP (1-36)” value came to 1.5 nM and the “fold shift of the PTHrP (1-36) dose response, M-CSF secretion by Saos-2 cells, 40 µg/mL antibody” value is more than 200 fold. Further, in test [2], the “% inhibition of cAMP accumulation at 1 µM PTH(1-34), 267 nM IgG” value turned out to be 55% and the “% inhibition of cAMP accumulation at 1 µM PTHrP(1-34), 267 nM IgG” value stood at 56%. In addition, in test [3], the “% inhibition of cAMP accumulation at 1 µM PTH(1-34), 267 nM IgG” value is 85% and the “% inhibition of cAMP accumulation at 1 µM PTHrP(1-34), 267 nM IgG” value stood at 89%. Further, in test [4], the “IC50, inhibition of PTH(1-34)-induced cAMP accumulation” value worked out at 10.6 nM and the “IC50, inhibition of PTHrP(1-34)-induced cAMP accumulation” value came to 8.23 nM. The “IC50, inhibition of PTHrP(1-34)-induced cAMP accumulation” value in test [5] came out at 2.82 nM. For the same molecule, in test [6], the Kd worked out at 0.19 nM, the off-rate (koff) is 9e-05 s⁻¹ and the kon was 470000 M⁻¹ s⁻¹. Besides, the binding result in test [7] was “no binding (tested: about 160 nM)”. In [8], this molecule had an EC50 of 3.67 nM. Further, in [9], the concentration for a half-maximal effect (EC50) was determined as 21.7 nM. Also, the half-maximal effective concentration (EC50) in test [10] turned out to be 193 nM.

B2: XPA.85.328 (antibody, V domains shown)
VH: QMQLVQSGAEVKKPGSSVKVSCKASGGTFSSYAISWVRQAPGQGLEWMGGIIPIFGTANYAQKFQGRVTITADESTSTAYMELSSLRSEDTAVYYCARGYVVARLWGQGTLVTVSS
VL: DVVMTQTPLSLSVTPGQPASISCKSSQSLLHIDGKTYLYWYLQKSGQSPQLLIYEVSNRFSGVPDTFSGSGSGTDFTLKISRVEAEDVGVYYCMQSLHFPITFGQGTRLEIK
notes: IgG; also called Ab328
With B2, in test [1], the “EC50 of antibody, neutralization of M-CSF production induced by 12.5 nM PTHrP (1-36)” value was 6.6 nM and the “fold shift of the PTHrP (1-36) dose response, M-CSF secretion by Saos-2 cells, 40 µg/mL antibody” value is more than 200 fold. Also, in [4], the “IC50, inhibition of PTH(1-34)-induced cAMP accumulation” value was found to be 11.8 nM and the “IC50, inhibition of PTHrP(1-34)-induced cAMP accumulation” value was 7.06 nM. In addition, the “IC50, inhibition of PTHrP(1-34)-induced cAMP accumulation” value in test [5] stood at 2.23 nM. Moreover, in [6], the Kd was 0.32 nM, the off-rate constant (koff) came to 0.00018 s⁻¹ and the on-rate constant (kon) was 560000 M⁻¹ s⁻¹. Further, the binding result in test [7] was “no binding (tested: about 160 nM)”. Also, the EC50 in test [11] was 4.4 nM. Further, in test [12], the concentration for a half-maximal effect (EC50) is 67.4 nM. For the same molecule, in test [13], the EC50 was 465 nM.
